# Positions count from the first letter of the chain named.
# T1: human FSTL1 (Homo sapiens, UniProt Q12841)
# T1 construct: AAA linker + 10xHis (C); made in house; host or cells: Expi293 (transient expression; purified from culture supernatant on HisPur Cobalt Resin)
# T1 sequence (Q12841 with tags, fused parts or gaps): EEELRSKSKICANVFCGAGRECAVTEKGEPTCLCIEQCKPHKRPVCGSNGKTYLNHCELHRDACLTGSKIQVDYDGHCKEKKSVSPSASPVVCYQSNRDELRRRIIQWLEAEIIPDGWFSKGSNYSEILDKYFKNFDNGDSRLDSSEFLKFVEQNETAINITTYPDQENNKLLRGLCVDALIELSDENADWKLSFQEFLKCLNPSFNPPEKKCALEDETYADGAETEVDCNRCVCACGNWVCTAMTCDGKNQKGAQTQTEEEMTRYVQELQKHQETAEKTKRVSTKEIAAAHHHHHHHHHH
# B1: #6-55: chicken-mouse chimeric anti-FSTL1 antibody clone; variable regions SEQ ID NO: 783 (light), 785 (heavy) (antibody, V domains shown)
# VH: AVTLDESGGGLQTPGGALSLVCKGSGFTFTSVTMQWVRQAPGKGLEWVASVCSGSSTYYAPAVKGRATISRDNGQSTVRLQLSNLRPEDTGTYYCAKIAGRARWSCTSAAYNIDAWGHGTEVIVSS
# VL: ASTQPSSVSAIPGETVKITCSGGGNNYGWYQQRSPGSAPVTVIYYNDNRPSNIPSRFSGSTSGSTSTLTITGVQADDEAIYYCGSWDSNTDSGIFGAGTTLTVL
# modifications: mouse constant regions
# B2: #7-34: chicken-mouse chimeric anti-FSTL1 antibody clone; variable regions SEQ ID NO: 787 (light), 789 (heavy) (antibody, V domains shown)
# VH: AVTLDESGGGLQTPGGGLSLVCKASGFTFSSVTMQWVRQAPGKGLEWVASICSGSSTYYGPAVKGRATISRDNGQNTVRLQLNNLRAEDTATYYCAKIVGRGRWSCTSAAYNIDAWGHGTEVIVSS
# VL: B1 VL with I11N, R33K, D47N, D76E, I80V, W86Y, D87E, S88G, N89S
# modifications: mouse constant regions
# Key:
# [1] = tested on: mouse breast cancer 4T1 cell-transplanted models; assay: In vivo breast cancer model (Example 21); parameters: species or system BALB/c mice; settings: intraperitoneal 10 mg/kg on days 4 and 7; day 14
# Method: (§1) Procedures and methods of the experiment were basically performed according to Examples 17 to 20 under substantially the same conditions as in the bone metastasis model experiments of Examples 17 to 20. Drug efficacy evaluation was conducted using mouse tumor models other than Snail-positive tumor bone metastasis models. The drug efficacy of the anti-FSTL1 antibody was evaluated using cancer-bearing models of BALB/c mice different in strain from the C57BL/6 mice used in the preceding tests. Changes were made as follows. • Day 0: transplantation of tumor cells (5×10^5 cells subcutaneously & 5×10^5 cells intravenously) Days 4 and 7: intraperitoneal administration of the antibody (10 mg/kg) • Day 14: drug efficacy evaluation (subcutaneous tumor growth)
# (§2) The tumor volumes of the mice were measured 4, 7, 11, and 14 days after tumor implantation.
# [2] = tested on: human pancreatic cancer cell line Panc1; assay: Action of anti-FSTL1 antibody under FSTL1 stimulation (Example 26); assay type: cell-based; settings: Panc1 stimulated with FSTL1 for 3 days; antibody 5 μg/ml
# Method: Next, in order to examine how surrounding tumor cells were changed in a cancer microenvironment by receiving FSTL1 produced by Snail/FSTL1-expressing cells, and how the anti-FSTL1 antibody acts thereon, a human pancreatic cancer cell line Panc1 confirmed to express Snail or FSTL1 only slightly was stimulated with FSTL1 for 3 days. The anti-FSTL1 antibody (#6-55, 5 μg/ml) or a control antibody (aHema, 5 μg/ml) was added to this culture system, and subsequent change in cell function was analyzed in the same way as in the preceding paragraph. […] The paper also reports that FSTL1 enhances invasive capacity.
# human FSTL1 = target: T1, human FSTL1; assay: ELISA, binding activity of purified antibody against human FSTL1 (Example 2); settings: cross reactivity test; antibody diluted from 1000 ng/ml
# Method: The reactivity of the obtained antibody clones described above with FSTL1 was evaluated by ELISA under the following conditions.
# Antibodies used: anti-dinitrophenyl (DNP) antibody (negative control), #5-2, #5-3, #5-8, #5-10, #5-43, #6-55, and #7-34
# FIGS. 64 and 65 show results of evaluating binding activity under the condition of Table 3 as to clones differing in screening and antibody purification timings.
# mouse bone marrow cells = assay: Ability of FSTL1-induced MSCs to differentiate into adipocytes (Examples 14, 16); assay type: cell-based; settings: Example 16; antibody 20.0-2.5 μg/ml; FIG. 104B
# Method: The antibody clone (#6-55, #7, #10, #13, or #22) was evaluated for its activity by the same testing method as in Example 13. #6-55 was set as a positive control for activity. […] Mouse bone marrow cells were supplemented with FSTL1 and the predetermined concentration of each antibody and cultured for 8 days. 5×10^4 cells/well were separated from each culture system and evaluated for the ability to differentiate into adipocytes using an adipocyte differentiation reagent included in “Mesenchymal Stem Cell Functional Identification Kit (R&D Systems, Inc., Cat. No. SC010)”. For the evaluation method, the cells were supplemented with the adipocyte differentiation reagent and cultured for 8 days. Then, adipocytes per culture system were counted under a microscope for evaluation. […]
# In the same way as in Example 15, mouse bone marrow cells were supplemented with FSTL1 and the predetermined concentration of each antibody and cultured for 8 days. 5×10^4 cells/well were separated from each culture system and evaluated for the ability to differentiate into adipocytes using an adipocyte differentiation reagent included in “Mesenchymal Stem Cell Functional Identification Kit (R&D Systems, Inc., Cat. No. SC010)”. […] Then, adipocytes per culture system were counted under a microscope for evaluation (FIG. 104B). […]
# [3] = tested on: mouse breast cancer 4T1 cells; assay: Mouse breast cancer 4T1 cell-transplanted model (Example 21); assay type: in vivo; settings: BALB/c mice; intraperitoneal 10 mg/kg on days 4 and 7; FIG. 109
# Method: as §1, with “intravenously) •” for “intravenously)”
# as §2
Molecule,growth of 4T1 subcutaneous tumor [1],cell growth [2],invasive capacity enhanced by FSTL1 [2],binding activity against human FSTL1 (human FSTL1),cells differentiating into adipocytes (mouse bone marrow cells),growth of 4T1 subcutaneous tumor [3]
B1,significantly suppressed,the cell growth was reduced by the addition of the anti-FSTL1 antibody together with FSTL1,the action thereof is canceled,specific and equivalently strong binding activity,decreased in number by the addition of #6-55 in a dose-dependent manner,significantly suppressed
B2,–,–,–,specific and equivalently strong binding activity,–,–

# From patent US20180021429A1, “ANTICANCER AGENTS OR ANTIMETASTATIC AGENTS USING FSTL1 AND COMBINATION DRUG THEREOF” (PHARMA FOODS INTERNATIONAL CO., LTD., priority 2015, published 2018)
